In paper PMC4721548, “Conformational heterogeneity of the Roc domains in C. tepidum Roc–COR and implications for human LRRK2 Parkinson mutations” (Bioscience Reports, 2015):

B1: C. tepidum RocCOR (AA 412-946) C600R1 + Y558A (domain or fragment, Chlorobium tepidum, UniProt Q8KC98 412-946, looked up)
chain: DNPLESPPPEIVKQGKEAVRQYFQSIEEARSKGEALVHLQEIKVHLIGDGMAGKTSLLKQLIGETFDPKESQTHGLNVVTKQAPNIKGLENDDELKECLFHFWDFGGQEIMHASHQFFMTRSSVYMLLLDSRTDSNKHYWLRHIEKAGGKSPVIVVMNKIDENPSYNIEQKKINERFPAIENRFHRISCKNGDGVESIAKSLKSAVLHPDSIYGTPLAPSWIKVKEKLVEATTAQRYLNRTEVEKICNDSGITDPGERKTLLGYLNNLGIVLYFEALDLSEIYVLDPHWVTIGVYRIINSSKTKNGHLNTSALGYILNEEQIRCDEYDPAKNNKFTYTLLEQRYLLDIMKQFELCYDEGKGLFIIPSNLPTQIDNEPEITEGEPLRFIMKYDYLPSTIIPRLMIAMQHQILDRMQWRYGMVLKSQDHEGALAKVVAETKDSTITIAIQGEPRCKREYLSIIWYEIKKINANFTNLDVKEFIPLPGHPDELVEYKELLGLEKMGRDEYVSGKLEKVFSVSKMLDSVISKEERNKER
modifications: MTSSL spin label on the native cysteine at 600 (R1 side chain)
notes: Roco protein of Chlorobium tepidum, RocCOR tandem, AA 412-946; native Cys600 used for labelling; Y558 corresponds to Arg1441 of human LRRK2
B2: C. tepidum RocCOR (AA 412-946) C600R1 + L487A (domain or fragment, Chlorobium tepidum, UniProt Q8KC98 412-946, looked up)
chain: DNPLESPPPEIVKQGKEAVRQYFQSIEEARSKGEALVHLQEIKVHLIGDGMAGKTSLLKQLIGETFDPKESQTHGANVVTKQAPNIKGLENDDELKECLFHFWDFGGQEIMHASHQFFMTRSSVYMLLLDSRTDSNKHYWLRHIEKYGGKSPVIVVMNKIDENPSYNIEQKKINERFPAIENRFHRISCKNGDGVESIAKSLKSAVLHPDSIYGTPLAPSWIKVKEKLVEATTAQRYLNRTEVEKICNDSGITDPGERKTLLGYLNNLGIVLYFEALDLSEIYVLDPHWVTIGVYRIINSSKTKNGHLNTSALGYILNEEQIRCDEYDPAKNNKFTYTLLEQRYLLDIMKQFELCYDEGKGLFIIPSNLPTQIDNEPEITEGEPLRFIMKYDYLPSTIIPRLMIAMQHQILDRMQWRYGMVLKSQDHEGALAKVVAETKDSTITIAIQGEPRCKREYLSIIWYEIKKINANFTNLDVKEFIPLPGHPDELVEYKELLGLEKMGRDEYVSGKLEKVFSVSKMLDSVISKEERNKER
modifications: MTSSL spin label on the native cysteine at 600 (R1 side chain)
notes: Roco protein of Chlorobium tepidum, RocCOR tandem, AA 412-946; native Cys600 used for labelling; L487 corresponds to Ile1371 of human LRRK2
B3: C. tepidum RocCOR (AA 412-946) C600R1, spin-labelled at the native cysteine 600 in the Roc domain (domain or fragment, Chlorobium tepidum, UniProt Q8KC98 412-946, looked up)
chain: DNPLESPPPEIVKQGKEAVRQYFQSIEEARSKGEALVHLQEIKVHLIGDGMAGKTSLLKQLIGETFDPKESQTHGLNVVTKQAPNIKGLENDDELKECLFHFWDFGGQEIMHASHQFFMTRSSVYMLLLDSRTDSNKHYWLRHIEKYGGKSPVIVVMNKIDENPSYNIEQKKINERFPAIENRFHRISCKNGDGVESIAKSLKSAVLHPDSIYGTPLAPSWIKVKEKLVEATTAQRYLNRTEVEKICNDSGITDPGERKTLLGYLNNLGIVLYFEALDLSEIYVLDPHWVTIGVYRIINSSKTKNGHLNTSALGYILNEEQIRCDEYDPAKNNKFTYTLLEQRYLLDIMKQFELCYDEGKGLFIIPSNLPTQIDNEPEITEGEPLRFIMKYDYLPSTIIPRLMIAMQHQILDRMQWRYGMVLKSQDHEGALAKVVAETKDSTITIAIQGEPRCKREYLSIIWYEIKKINANFTNLDVKEFIPLPGHPDELVEYKELLGLEKMGRDEYVSGKLEKVFSVSKMLDSVISKEERNKER
modifications: MTSSL spin label on the native cysteine at 600 (R1 side chain)
notes: Roco protein of Chlorobium tepidum, RocCOR tandem, AA 412-946; native Cys600 used for labelling; Forms a homodimer; the row is the protomer with itself; also called C600R1^Roc

Target: the molecule itself
Assay: DEER (pulse EPR) inter-spin distance measurement; single-site MTSSL-labelled RocCOR, 50-100 uM protein, frozen at 50 K, X band; 150 mM NaCl, 30 mM Tris/HCl, 5 mM MgCl2, pH 7.5, 5% glycerol; apo, 1 mM GppNHp, GDP-AlFx (1 mM GDP, 1 mM AlCl3, 10 mM NaF) or 1 mM GDP; distances between the two symmetry-related labels of the dimer

Binding result, binds:
B1
B2
B3
